This note sets out measurements from publication PMC13674618, “Electropolymerized Aptasensor for Femtogram‐Level Cytokine Detection”.

Data set [1] deals with Tumour necrosis factor-alpha (TNF-alpha) (Homo sapiens, UniProt P01375 77-233). The data set is described as follows: OECT gate-voltage shift; negligible, non-monotonic shifts over the tested range; Kelvin probe in agreement; PBS (immobilization and rinse PBS pH 7.4); FO-SPR 10 min per concentration step; aptamer folded 95 C 5 min, ice 15 min, RT 5 min; assay temperature not stated. The conditions noted are these: protein: recombinant; chain copies: 3; label: none.

Data set [2] concerns the target Interleukin-6 (IL-6) (UniProt P05231 30-212). Description: FO-SPR; aptamer immobilized on pALT5c film; 100 fg/mL to 1 ug/mL IL-6 in PBS; no response without aptamer; PBS (immobilization and rinse PBS pH 7.4); FO-SPR 10 min per concentration step; aptamer folded 95 C 5 min, ice 15 min, RT 5 min; assay temperature not stated. The conditions noted are these: label: none.

Interleukin-6 (IL-6), sequence (P05231 30-212): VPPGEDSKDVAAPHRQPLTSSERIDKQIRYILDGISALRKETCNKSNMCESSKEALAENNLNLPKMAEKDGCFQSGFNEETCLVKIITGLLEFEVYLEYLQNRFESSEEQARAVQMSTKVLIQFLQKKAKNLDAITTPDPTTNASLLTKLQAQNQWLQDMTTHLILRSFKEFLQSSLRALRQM
Tumour necrosis factor-alpha (TNF-alpha), sequence (P01375 77-233): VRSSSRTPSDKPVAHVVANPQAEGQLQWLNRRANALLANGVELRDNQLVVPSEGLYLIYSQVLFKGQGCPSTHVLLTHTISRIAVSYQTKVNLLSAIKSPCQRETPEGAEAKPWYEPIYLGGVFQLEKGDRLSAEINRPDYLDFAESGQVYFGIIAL

CTTCCAACGCTCGTATTGTCAGTCTTTAGT (ssDNA, 5'-AminoC6) [IL-6 specific aptamer (Apt)]: the results for the binding result in data set [1] and in data set [2] were “no binding” and “binds”, respectively.
